The target of this assay is T1, full length WT dynamin-1 (UniProt Q05193).
T1 sequence: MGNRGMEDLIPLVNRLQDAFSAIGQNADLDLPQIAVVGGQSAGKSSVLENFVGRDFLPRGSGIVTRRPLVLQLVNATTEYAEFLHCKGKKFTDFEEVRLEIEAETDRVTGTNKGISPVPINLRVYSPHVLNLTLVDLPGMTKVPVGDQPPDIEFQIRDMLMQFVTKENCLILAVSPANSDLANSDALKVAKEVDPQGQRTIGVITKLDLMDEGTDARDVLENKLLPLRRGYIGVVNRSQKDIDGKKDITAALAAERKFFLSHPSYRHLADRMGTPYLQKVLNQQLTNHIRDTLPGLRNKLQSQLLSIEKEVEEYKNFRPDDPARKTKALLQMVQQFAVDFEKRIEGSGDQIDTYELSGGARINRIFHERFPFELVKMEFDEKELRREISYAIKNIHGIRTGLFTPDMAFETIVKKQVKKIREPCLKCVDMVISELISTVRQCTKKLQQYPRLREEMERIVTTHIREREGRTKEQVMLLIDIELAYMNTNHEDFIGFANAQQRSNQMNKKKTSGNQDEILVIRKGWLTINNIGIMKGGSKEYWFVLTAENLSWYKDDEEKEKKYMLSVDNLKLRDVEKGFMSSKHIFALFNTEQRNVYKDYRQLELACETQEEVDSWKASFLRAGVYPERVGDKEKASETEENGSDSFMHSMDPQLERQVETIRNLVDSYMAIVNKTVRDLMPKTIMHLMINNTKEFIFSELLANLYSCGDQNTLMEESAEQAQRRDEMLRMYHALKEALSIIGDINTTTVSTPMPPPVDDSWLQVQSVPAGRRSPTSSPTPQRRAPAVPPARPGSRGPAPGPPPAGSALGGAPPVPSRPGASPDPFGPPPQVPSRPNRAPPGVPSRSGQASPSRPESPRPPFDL

This passage reports inhibition of fission activity (vesicle release from SUPER templates) of 0.5 µM WT dynamin-1 by increasing S45N (∼50% and inhibition of fission activity (vesicle release from SUPER templates) of 0.5 µM WT dynamin-1 by increasing Q40E (∼50% results from article PMC3561337.

B1: full length S45N dynamin-1 (enzyme)
chain: MGNRGMEDLIPLVNRLQDAFSAIGQNADLDLPQIAVVGGQSAGKNSVLENFVGRDFLPRGSGIVTRRPLVLQLVNATTEYAEFLHCKGKKFTDFEEVRLEIEAETDRVTGTNKGISPVPINLRVYSPHVLNLTLVDLPGMTKVPVGDQPPDIEFQIRDMLMQFVTKENCLILAVSPANSDLANSDALKVAKEVDPQGQRTIGVITKLDLMDEGTDARDVLENKLLPLRRGYIGVVNRSQKDIDGKKDITAALAAERKFFLSHPSYRHLADRMGTPYLQKVLNQQLTNHIRDTLPGLRNKLQSQLLSIEKEVEEYKNFRPDDPARKTKALLQMVQQFAVDFEKRIEGSGDQIDTYELSGGARINRIFHERFPFELVKMEFDEKELRREISYAIKNIHGIRTGLFTPDMAFETIVKKQVKKIREPCLKCVDMVISELISTVRQCTKKLQQYPRLREEMERIVTTHIREREGRTKEQVMLLIDIELAYMNTNHEDFIGFANAQQRSNQMNKKKTSGNQDEILVIRKGWLTINNIGIMKGGSKEYWFVLTAENLSWYKDDEEKEKKYMLSVDNLKLRDVEKGFMSSKHIFALFNTEQRNVYKDYRQLELACETQEEVDSWKASFLRAGVYPERVGDKEKASETEENGSDSFMHSMDPQLERQVETIRNLVDSYMAIVNKTVRDLMPKTIMHLMINNTKEFIFSELLANLYSCGDQNTLMEESAEQAQRRDEMLRMYHALKEALSIIGDINTTTVSTPMPPPVDDSWLQVQSVPAGRRSPTSSPTPQRRAPAVPPARPGSRGPAPGPPPAGSALGGAPPVPSRPGASPDPFGPPPQVPSRPNRAPPGVPSRSGQASPSRPESPRPPFDL
B1 returned an inhibition of fission activity (vesicle release from SUPER templates) of 0.5 µM WT dynamin-1 by increasing S45N (∼50% at mutant:WT 0.5; value given at 1:1), 1 mM GTP, room temperature of 80%.

B2: full length Q40E dynamin-1 (enzyme)
chain: MGNRGMEDLIPLVNRLQDAFSAIGQNADLDLPQIAVVGGESAGKSSVLENFVGRDFLPRGSGIVTRRPLVLQLVNATTEYAEFLHCKGKKFTDFEEVRLEIEAETDRVTGTNKGISPVPINLRVYSPHVLNLTLVDLPGMTKVPVGDQPPDIEFQIRDMLMQFVTKENCLILAVSPANSDLANSDALKVAKEVDPQGQRTIGVITKLDLMDEGTDARDVLENKLLPLRRGYIGVVNRSQKDIDGKKDITAALAAERKFFLSHPSYRHLADRMGTPYLQKVLNQQLTNHIRDTLPGLRNKLQSQLLSIEKEVEEYKNFRPDDPARKTKALLQMVQQFAVDFEKRIEGSGDQIDTYELSGGARINRIFHERFPFELVKMEFDEKELRREISYAIKNIHGIRTGLFTPDMAFETIVKKQVKKIREPCLKCVDMVISELISTVRQCTKKLQQYPRLREEMERIVTTHIREREGRTKEQVMLLIDIELAYMNTNHEDFIGFANAQQRSNQMNKKKTSGNQDEILVIRKGWLTINNIGIMKGGSKEYWFVLTAENLSWYKDDEEKEKKYMLSVDNLKLRDVEKGFMSSKHIFALFNTEQRNVYKDYRQLELACETQEEVDSWKASFLRAGVYPERVGDKEKASETEENGSDSFMHSMDPQLERQVETIRNLVDSYMAIVNKTVRDLMPKTIMHLMINNTKEFIFSELLANLYSCGDQNTLMEESAEQAQRRDEMLRMYHALKEALSIIGDINTTTVSTPMPPPVDDSWLQVQSVPAGRRSPTSSPTPQRRAPAVPPARPGSRGPAPGPPPAGSALGGAPPVPSRPGASPDPFGPPPQVPSRPNRAPPGVPSRSGQASPSRPESPRPPFDL
Molecule B2 returned an inhibition of fission activity (vesicle release from SUPER templates) of 0.5 µM WT dynamin-1 by increasing Q40E (∼50% at mutant:WT 0.5; value given at 1:1), 1 mM GTP, room temperature of 60%.
